We go through one molecule from patent US20250163137A1.

Assay [1] has as its target human FDP (fibrin-fibrinogen degradation products) (human) (UniProt P02671). Briefly: affinity test (RU read-out; instrument not named).
The target is the same in assay [2]. Briefly: kinetic analysis, 1:1 binding fit (RU read-out; instrument not named).
The target is the same in assay [3]. Briefly: comparison drawn from Tables 3 and 4 (kinetic analysis and affinity test).

The term Kd denotes the constant that tells how readily two partners part at equilibrium. For orientation: koff means the rate constant with which the complex falls apart. As a reminder, the kon is the second-order rate constant of association.

B1: mAb 14G12-5 (antibody, V domains shown)
VH: EVQLVESGGGLVKPGGSLKLSCAASGFAFNAYDMSWVRQTPEKRLEWVAYISSSGDYTYYPDTVKGRFTVSRDNAKSTLYLHMGSLKSEDTAMYYCAVYYHYDEGLDYWGQGTALTVSS
VL: QIVLIQSPAIMSASPGEKVTMTCSASSSVNYMHWYQQKSGTSPKRWIYDTSKLASGVPARFSGSGSGTSYSLTISSMEAEDAATYYCQQWSSNPPTFGGGTKLEIKR
As to B1, the Kd in assay [1] worked out at 157 nM. In assay [2], the Kd amounted to 16.5 nM, the koff came out at 0.00225 s⁻¹ and the kon came out at 136000 M⁻¹ s⁻¹. Moreover, the fold binding capacity against canine FDP in assay [3] amounted to 10 fold.
